Paper PMC7418704

The substances below were run against Biotinylated human ACE2 ectodomain (ACROBiosystems AC2-H82E6), native dimeric form (human) (UniProt Q9BYF1) (assay: FACS).
Sequence of Biotinylated human ACE2 ectodomain (ACROBiosystems AC2-H82E6), native dimeric form (human) (Q9BYF1 18-740): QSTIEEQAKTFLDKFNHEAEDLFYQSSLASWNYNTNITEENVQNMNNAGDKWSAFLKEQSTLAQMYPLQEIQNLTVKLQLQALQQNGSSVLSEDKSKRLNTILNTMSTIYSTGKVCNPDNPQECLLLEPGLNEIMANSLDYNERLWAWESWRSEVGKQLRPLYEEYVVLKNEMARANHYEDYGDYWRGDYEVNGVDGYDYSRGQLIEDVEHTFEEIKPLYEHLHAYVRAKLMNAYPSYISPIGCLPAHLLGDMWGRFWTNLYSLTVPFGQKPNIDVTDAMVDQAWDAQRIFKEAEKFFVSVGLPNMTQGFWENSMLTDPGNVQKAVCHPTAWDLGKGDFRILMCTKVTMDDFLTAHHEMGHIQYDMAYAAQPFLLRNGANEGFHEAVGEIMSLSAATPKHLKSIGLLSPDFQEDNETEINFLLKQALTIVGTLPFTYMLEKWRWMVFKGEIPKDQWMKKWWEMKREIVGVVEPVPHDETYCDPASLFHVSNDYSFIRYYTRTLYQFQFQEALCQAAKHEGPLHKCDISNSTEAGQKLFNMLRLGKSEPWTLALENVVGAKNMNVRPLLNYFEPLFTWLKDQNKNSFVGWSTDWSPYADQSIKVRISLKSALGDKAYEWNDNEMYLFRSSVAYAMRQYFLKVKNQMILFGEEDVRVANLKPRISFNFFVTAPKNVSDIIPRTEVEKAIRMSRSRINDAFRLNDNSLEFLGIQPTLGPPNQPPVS
In the case of ZC45 RBD, yeast-displayed, the Kd is reported as over 1000 nM.
ZXC21 RBD, yeast-displayed showed a Kd of over 1000 nM.
Work on WIV1 RBD, yeast-displayed yielded a Kd of 0.017 nM.
